Reference: article PMC7608914

Target: Alexa488-labeled Nuc165 (human)
Assay: fluorescence polarisation; HPF1 titrated from 16.8 μM to 0 μM into 5 nM Alexa488-labeled Nuc165; 50 mM Tris-HCl pH 8, 50 mM NaCl, 1 mM MgCl2, 0.1 mM EDTA, 0.1 mM TCEP, 0.01% NP-40; Hill model

Kd: 1450 nM
B1: Histone PARylation Factor 1 (natural protein)
chain: MVGGGGKRRPGGEGPQCEKTTDVKKSKFCEADVSSDLRKEVENHYKLSLPEDFYHFWKFCEELDPEKPSDSLSASLGLQLVGPYDILAGKHKTKKKSTGLNFNLHWRFYYDPPEFQTIIIGDNKTQYHMGYFRDSPDEFPVYVGINEAKKNCIIVPNGDNVFAAVKLFLTKKLREITDKKKINLLKNIDEKLTEAARELGYSLEQRTVKMKQRDKKVVTKTFHGAGLVVPVDKNDVGYRELPETDADLKRICKTIVEAASDEERLKAFAPIQEMMTFVQFANDECDYGMGLELGMDLFCYGSHYFHKVAGQLLPLAYNLLKRNLFAEIIEEHLANRSQENIDQLAA
